From paper doi:10.1101/2024.04.30.591959

Target: T1, human propionyl-CoA carboxylase β subunit (human (endogenous in Expi 293F)), P05166
T1 chain: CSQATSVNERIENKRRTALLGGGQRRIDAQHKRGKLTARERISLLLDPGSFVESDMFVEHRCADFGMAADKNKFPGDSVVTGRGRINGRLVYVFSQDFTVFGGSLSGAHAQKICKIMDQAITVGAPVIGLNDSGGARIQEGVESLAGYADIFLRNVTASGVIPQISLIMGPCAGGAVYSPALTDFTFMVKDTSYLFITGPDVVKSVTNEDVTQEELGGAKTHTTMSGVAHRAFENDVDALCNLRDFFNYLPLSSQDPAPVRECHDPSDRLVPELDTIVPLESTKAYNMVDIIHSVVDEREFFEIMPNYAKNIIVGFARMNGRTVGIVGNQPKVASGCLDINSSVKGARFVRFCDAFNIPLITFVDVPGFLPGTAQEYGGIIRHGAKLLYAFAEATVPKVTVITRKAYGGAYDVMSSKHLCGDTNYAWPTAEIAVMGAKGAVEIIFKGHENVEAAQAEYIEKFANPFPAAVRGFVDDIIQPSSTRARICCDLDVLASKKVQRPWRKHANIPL
Test: cryo-EM structure
Conditions: remark: other sources report otherwise

B1: human propionyl-CoA carboxylase β subunit, P05166 29-539 (natural protein)
chain: T1 chain
stoichiometry N: 6
